{"source": "patent US6514747B2", "about": "(UT-Battelle, LLC, priority 1993, dated 2003)", "molecules": {"B1": {"name": "agouti: recombinant mouse agouti protein (131 amino acids, SEQ ID NO:2) produced with the baculovirus expression system in T. ni cells (protein, listed as Mus musculus)", "chain": "MDVTRLLLATLVSFLCFFTVHSHLALEETLGDDRSLRSNSSMNSLDFSSVSIVALNKKSKKISRKEAEKRKRSSKKKASMKKVARPPPPSPCVATRDSCKPPAPACCDPCASCQCRFFGSACTCRVLNPNC"}}, "target": "T1, human melanocortin 1 receptor (hMC1R) (Homo sapiens, UniProt Q01726)", "T1 construct": "The coding region of the human melanocortin 1, 3, and 5 receptor (hMC1R, hMC3R, and hMC5R) genes was amplified; expressed in transfected cells; host or cells: HEK-293 cells, cotransfected with pMT4 construct and pRSV-Neo, geneticin-selected clones", "T1 sequence (Q01726 whole entry)": "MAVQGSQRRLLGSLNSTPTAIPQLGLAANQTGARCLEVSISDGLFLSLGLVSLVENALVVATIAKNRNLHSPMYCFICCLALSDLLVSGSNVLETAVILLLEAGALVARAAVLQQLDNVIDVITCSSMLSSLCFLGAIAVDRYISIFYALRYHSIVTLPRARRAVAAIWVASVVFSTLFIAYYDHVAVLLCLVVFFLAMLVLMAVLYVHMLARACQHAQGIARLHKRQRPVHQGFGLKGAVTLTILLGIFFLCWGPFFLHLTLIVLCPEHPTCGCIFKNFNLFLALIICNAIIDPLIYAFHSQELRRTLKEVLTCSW", "assay": "[Ca2+]i in HEK-293 cells transfected with hMC1R", "assay_type": "cell-based", "settings": "FIG. 48, plateau at 400 s", "description": "The coding region of the human melanocortin 1, 3, and 5 receptor (hMC1R, hMC3R, and hMC5R) genes was amplified by polymerase chain reaction and subcloned into the vector pMT4, and the sequence was verified. HEK-293 cells, which appear to lack endogenous melanocortin receptors (Lu et al., 1994), were cotransfected with pMT4 and pRSV-Neo by either calcium phosphate coprecipitation method or the use of Transfectam reagent (Promega). Clones were selected using 600 μg geneticin/ml. culture medium.\n[Ca^2+]i was measured in L6, A7r5, and HEK-293 cells (Zemel et al., 1995) as previously described and in 3T3-L1 cells as described by Klip and Ramlal (1987). Monolayers of nonfused L6 cells and confluent A7r5 cells after 14-16 h of starvation in a serum-free culture medium were rinsed with Hanks' balanced salt solution (HBSS), detached by incubation in 2 ml trypsin (0.05%) for 2-3 min at 37° C., and released by pipetting without trypsinization. Cells were harvested by centrifugation at 50 g and resuspended in 1 ml HBSS at a density of ˜10^6 cells/ml. For 3T3-L1 cells, monolayers of differentiated adipocytes were rinsed with serum-free DMEM and exposed to 0.05% trypsin for 3 min. The solution was decanted, and the cells were incubated for 3 min in culture medium. Cells were detached by pipetting and collected by centrifugation at 50 g. Cells were then incubated in culture medium to recover for 1 h followed by incubation in serum-free DMEM for 4 h at 37° C. in an atmosphere of 5% CO2, collected by centrifugation, and resuspended in HBSS at a density of ˜10^6 cells/ml. Cell suspensions were chilled on ice for 5 min and loaded with […] (final concn) fura 2 acetoxymethyl ester (AM; Sigma) in the dark for 20 min at 37° C. For 3T3-L1 adipocytes, the chilling step was skipped. […] [Ca^2+]i levels were then measured fluorometrically in suspensions using dual excitation (340 and 380 nm)-single emission (510 nm) fluorometry as previously described (Zemel et al., 1995). [Ca^2+]i was then calculated by the computer in the fluorometer with the equation of Grynkiewicz et al. (1985). […]"}
{"molecule": "B1", "values": [{"measurement": "Vmax of [Ca2+]i dose-response fit", "value": "108.2±1.337"}, {"measurement": "EC50", "setting": "read-out: K of [Ca2+]i dose-response fit", "value": "18.4 ± 0.706", "unit": "nM"}]}
